Measurements from patent US20180155712, “COMPOSITIONS AND METHODS FOR IDENTIFYING POLYNUCLEOTIDES OF INTEREST” (The Regents of the University of California, published 2018).

Biological target: T7 RNA polymerase (Bacteriophage T7, UniProt P00573 P00573:1-883)
Experiment: functional promoter recovered as cDNA by in vitro transcription and deep sequencing; relative strength not given
Experimental: Transcription with T7 RNA polymerase, phenol/chloroform/iso-amyl alcohol extraction, ethanol precipitation, and reverse transcription were performed as described for Examples 1 and 2, above. PCR was done of the resulting cDNA with primers that added appropriate indexed sequences for Illumina deep sequencing, as described above and herein. PCR was also done directly on the library plasmid, again adding the appropriate sequences for Illumina deep sequencing, but with a different index. The appropriately sized PCR products from the cDNA and from the plasmid library were gel purified. An equal mass amount of the two products were mixed and submitted for Illumina MiSeq deep sequencing. Approximately 5 million sequences were generated for each of the cDNA and plasmid library after separation based on the primer indices. For both cDNA and library PCR products, non-promoter sequences were trimmed, promoter sequences were separated based on the number of mutations present in each sequence, and the number of times any given sequence was present was determined. […] See, SEQ ID NOs: 10-73473 listed in the text-formatted computer readable sequence listing filed herewith, and incorporated herein by reference. […]

Chain of T7 RNA polymerase (P00573 whole entry, one chain of several): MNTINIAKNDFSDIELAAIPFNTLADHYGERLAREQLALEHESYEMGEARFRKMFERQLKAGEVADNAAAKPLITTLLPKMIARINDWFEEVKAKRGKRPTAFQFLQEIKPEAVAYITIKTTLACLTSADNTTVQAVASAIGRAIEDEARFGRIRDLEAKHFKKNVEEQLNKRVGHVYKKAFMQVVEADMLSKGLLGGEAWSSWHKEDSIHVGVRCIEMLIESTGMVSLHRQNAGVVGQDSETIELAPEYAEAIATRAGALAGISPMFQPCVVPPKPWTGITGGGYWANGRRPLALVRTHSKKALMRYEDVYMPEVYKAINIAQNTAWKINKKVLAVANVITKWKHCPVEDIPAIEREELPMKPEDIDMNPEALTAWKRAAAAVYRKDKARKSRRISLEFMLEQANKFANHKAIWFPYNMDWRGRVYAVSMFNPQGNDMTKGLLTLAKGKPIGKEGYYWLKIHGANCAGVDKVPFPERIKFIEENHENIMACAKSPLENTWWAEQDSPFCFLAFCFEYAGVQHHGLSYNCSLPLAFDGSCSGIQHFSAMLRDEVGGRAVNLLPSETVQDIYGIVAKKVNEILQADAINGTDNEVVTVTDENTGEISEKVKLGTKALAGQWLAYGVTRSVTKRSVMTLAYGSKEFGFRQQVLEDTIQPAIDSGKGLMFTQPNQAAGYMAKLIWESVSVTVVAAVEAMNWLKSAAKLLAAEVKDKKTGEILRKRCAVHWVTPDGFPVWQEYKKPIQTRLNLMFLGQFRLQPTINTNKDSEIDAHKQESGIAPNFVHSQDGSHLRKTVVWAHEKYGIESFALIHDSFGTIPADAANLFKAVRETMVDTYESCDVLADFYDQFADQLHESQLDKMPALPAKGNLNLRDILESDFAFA

B1: mutant T7 promoter SEQ ID NO: 10 (dsDNA)
DNA 1: TAATACGACTCGCTATCG
DNA 2: CGATAGCGAGTCGTATTA
B1: binds.
